In US6075125 one finds log fluorescent mean channel number (mean log fluorescent channel number) data, which are given here for one substance.

For the assay, the target named is BFIV21FLAG: BFIV21 with the FLAG epitope on the amino terminal end, expressed on RP9 cells (chicken). The assay is described as follows: indirect immunofluorescence, flow cytometry on RP9-BFIV21FLAG cells (RP9-BFIV21: 21; RP9: 20). A general note: In flow cytometry, cells or beads pass a laser one at a time.

“FLAG-specific monoclonal antibody M2 (Kodak-IBI) (tool reagent)” yielded a log fluorescent mean channel number (mean log fluorescent channel number) of 191.
